Experimental data from patent publication US20200040082A1 (Seagen, published 2020).
Residue numbers refer to the chain shown, from its start.

Assays:
[1] = biological target: T1, discontinuous epitope mimic CKDRVAPGPGLGLTLQCI2NADLGWHISPSFKC (Cys-acetamidomethyl (Cys-acm, printed as '2') at position 19; Cys at positions 1, 17 and 33 used for the T3 CLIPS scaffold (as for Set 8)); assay: Pepscan-based peptide array ELISA, discontinuous epitope mimics
T1 peptide: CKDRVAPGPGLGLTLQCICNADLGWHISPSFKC
Protocol: (§1) The binding of antibody to each of the synthesized peptides was tested in a pepscan-based ELISA. The peptide arrays were incubated with primary antibody solution (overnight at 4° C.). After washing, the peptide arrays were incubated with a 1/1000 dilution of a goat anti-human HRP conjugate (Southern Biotech) for one hour at 25° C. […] After one hour, the color development was measured. The color development was quantified with a charge coupled device (CCD)—camera and an image processing system.

[2] = biological target: T2, discontinuous epitope mimic CILQ2HLSSTTAQVTQCI2NADLGWHISPSFKC (Cys-acetamidomethyl (Cys-acm, printed as '2') at positions 5 and 19; Cys at positions 1, 17 and 33 used for the T3 CLIPS scaffold (as for Set 8)); assay: as above
T2 peptide: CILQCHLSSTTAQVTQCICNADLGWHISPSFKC
Protocol: as §1

[3] = biological target: T3, human TIGIT (T-cell immunoreceptor with Ig and ITIM domains) (human, UniProt Q495A1 22-244); assay: competition flow cytometry against 1 ug/mL hCD155-Fc-AlexaFluor647 on 293-hTIGIT cells
T3 construct: also called hTIGIT
T3 sequence: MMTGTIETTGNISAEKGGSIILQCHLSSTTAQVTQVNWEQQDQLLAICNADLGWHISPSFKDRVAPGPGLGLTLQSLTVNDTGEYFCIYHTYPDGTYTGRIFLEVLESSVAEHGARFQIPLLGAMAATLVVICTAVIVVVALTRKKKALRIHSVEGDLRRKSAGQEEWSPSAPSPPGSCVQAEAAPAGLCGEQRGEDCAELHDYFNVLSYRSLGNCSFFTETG
Protocol: Samples were analyzed on a CytoFLEX flow cytometer. Median fluorescence intensity of the FSC/SSC gated population was determined for each antibody concentration. Percent blockade was calculated relative to the MFI of the no antibody control. NonLinear regression of Log(X) transformed data was performed in GraphPad Prism 6.

[4] = biological target: T3, human TIGIT (T-cell immunoreceptor with …); assay: competition flow cytometry against hCD112-Fc-AlexaFluor647 on 293-hTIGIT cells
[5] = biological target: T3, human TIGIT (T-cell immunoreceptor with …); assay: flow cytometry titration on HEK 293 cells expressing human TIGIT
[6] = biological target: T3, human TIGIT (T-cell immunoreceptor with …); assay: flow cytometry, MFI on human TIGIT HEK 293 cells over parental HEK 293 cells
Protocol: (§2) HEK 293 cells were engineered to stably express high levels of human, mouse or cynomolgus monkey TIGIT by lentiviral transduction. […] Cells were then washed twice with wash buffer and incubated with anti-human IgG conjugated to PE for 15 minutes on ice. Cells were then washed twice with wash buffer and analyzed by flow cytometry on a FACS Canto II instrument (BD Biosciences). Fold over background (FOB) was calculated as the median fluorescence intensity (MFI) of the anti-TIGIT clone bound to target-positive cells divided by the MFI of the anti-TIGIT clone bound to target-negative cells.

cynomolgus monkey TIGIT = biological target: T4, cynomolgus monkey TIGIT (cynomolgus monkey); assay: flow cytometry, MFI on cyno TIGIT HEK 293 cells over parental HEK 293 cells
T4 construct: On HEK 293 cells (lentiviral transduction) and on cynomolgus peripheral blood T cells; also called cyno TIGIT
T4 sequence (chain, as listed by the source limits assumed): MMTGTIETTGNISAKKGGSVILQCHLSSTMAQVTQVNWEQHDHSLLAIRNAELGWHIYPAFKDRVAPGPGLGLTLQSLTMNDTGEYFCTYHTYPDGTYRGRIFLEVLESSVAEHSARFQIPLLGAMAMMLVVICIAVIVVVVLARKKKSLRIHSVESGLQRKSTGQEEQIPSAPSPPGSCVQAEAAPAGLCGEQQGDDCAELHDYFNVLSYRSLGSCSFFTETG
Protocol: as §2

B1: Clone 25 (antibody, V domains shown)
VH: QVQLVQSGAEVKKPGASVKVSCKASGYTFTSYAISWVRQAPGQGLEWMGWISAYNGNTNYAQKLQGRVTMTTDTSTSTAYMELRSLRSDDTAVYYCARDLSSFWSGDVLGAFDIWGQGTMVTVSS
VL: DIQMTQSPSSLSASVGDRVTITCRASQSISSYLNWYQQKPGKAPKLLIYAASSLQSGVPSRFSGSGSGTDFTLTISSLQPEDFATYYCQQSVPPRTFGGGTKVEIK
notes: Fully human IgG from a yeast presentation system; also called anti-TIGIT clone 25
binding result [1]: binds | binding result [2]: binds

B2: Clone 13 (antibody, human IgG1, V domains shown)
VH: QVQLVQSGAEVKKPGSSVKVSCKASGGTFSSYAISWVRQAPGQGLEWMGSIIPIFGTANYAQKFQGRVTITADESTSTAYMELSSLRSEDTAVYYCARGPSEVGAILGYVWFDPWGQGTLVTVSS
VL: not shown
notes: Fully human IgG1 ('c13 hIgG1'); also called anti-TIGIT clone 13; c13 hIgG1
IC50 (read off the curve) [3]: ~0.2 µg/mL | IC50 (read off the curve) [4]: ~0.09 µg/mL

B3: mouse IgG2a chimera of anti-TIGIT clone 13 (antibody, V domains shown)
VH: B2 VH
VL: not shown
notes: also called c13 mIgG2a
EC50 [5]: 0.04 µg/mL | IC50 (read off the curve) [4]: ~0.06 µg/mL

B4: Clone 13D (antibody, V domains shown)
VH: B2 VH with S30L, Y32S, I54Y, T57K, G104K, A105G
VL: not shown
notes: IgG
FOB (Fold Over Background) [6]: 190 fold | FOB (Fold Over Background) (cynomolgus monkey TIGIT): 245 fold
